Patent publication US20230158141A1 (YAFEI SHANGHAI BIOLOG MEDICINE SCIENCE AND TECHNOLOGY, published 2023)

T1: IL-10R1-Fc (UniProt Q13651 22-235, limits assumed)
T1 sequence (looked up): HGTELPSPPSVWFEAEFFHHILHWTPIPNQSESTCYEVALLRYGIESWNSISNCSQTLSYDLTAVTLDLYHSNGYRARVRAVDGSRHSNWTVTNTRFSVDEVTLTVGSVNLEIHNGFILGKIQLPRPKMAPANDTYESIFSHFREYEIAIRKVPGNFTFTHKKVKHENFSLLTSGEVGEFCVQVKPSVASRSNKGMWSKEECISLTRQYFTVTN

T2: IL-10R2-Fc/His (UniProt Q08334 20-220, limits assumed)
T2 sequence (looked up): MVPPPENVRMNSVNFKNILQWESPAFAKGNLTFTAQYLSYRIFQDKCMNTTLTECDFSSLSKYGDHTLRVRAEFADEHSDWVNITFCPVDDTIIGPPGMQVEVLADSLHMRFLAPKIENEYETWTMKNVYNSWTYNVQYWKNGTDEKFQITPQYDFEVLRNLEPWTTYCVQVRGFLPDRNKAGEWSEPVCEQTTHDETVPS


Legend:
[1] = biological target: T1, IL-10R1-Fc; experiment: ELISA, IL-10R1-Fc coated
[2] = biological target: T2, IL-10R2-Fc/His; experiment: ELISA, IL-10R2-Fc/His coated

Binding recovery (>60%) [1] [%]	Binding recovery (>60%) [2] [%]	Decreased fold of binding to ligand after Conjugating with S48 [2] [fold]	Decreased fold of binding to ligand after Conjugating with S48 [1] [fold]	Binder
90	98.1	–	–	IL-10 Arg24Cys-R4-20 (ligand, human, UniProt P22301 19-178, looked up, R4-20 on Cys 24, mature) SPGQGTQSENSCTHFPGNLPNMLCDLRDAFSRVKTFFQMKDQLDNLLLKESLLEDFKGYLGCQALSEMIQFYLEEVMPQAENQDPDIKAHVNSLGENLKTLRLRLRRCHRFLPCENKSKAVEQVKNAFNKLQEKGIYKAMSEFDIFINYIEAYMTMKIRN
–	–	3	–	IL-10 Phe15Cys-S48 (ligand, human, UniProt P22301 19-178, looked up, S48 on Cys 15, mature) SPGQGTQSENSCTHCPGNLPNMLRDLRDAFSRVKTFFQMKDQLDNLLLKESLLEDFKGYLGCQALSEMIQFYLEEVMPQAENQDPDIKAHVNSLGENLKTLRLRLRRCHRFLPCENKSKAVEQVKNAFNKLQEKGIYKAMSEFDIFINYIEAYMTMKIRN
–	–	6	3	IL-10 Arg104Cys-S48 (ligand, human, UniProt P22301 19-178, looked up, S48 on Cys 104, mature) SPGQGTQSENSCTHFPGNLPNMLRDLRDAFSRVKTFFQMKDQLDNLLLKESLLEDFKGYLGCQALSEMIQFYLEEVMPQAENQDPDIKAHVNSLGENLKTLRLCLRRCHRFLPCENKSKAVEQVKNAFNKLQEKGIYKAMSEFDIFINYIEAYMTMKIRN
–	–	9	33	IL-10 Arg24Cys-S48 (ligand, human, UniProt P22301 19-178, looked up, S48 on Cys 24, mature) SPGQGTQSENSCTHFPGNLPNMLCDLRDAFSRVKTFFQMKDQLDNLLLKESLLEDFKGYLGCQALSEMIQFYLEEVMPQAENQDPDIKAHVNSLGENLKTLRLRLRRCHRFLPCENKSKAVEQVKNAFNKLQEKGIYKAMSEFDIFINYIEAYMTMKIRN
–	–	6	5	IL-10 Met22Cys-S48 (ligand, human, UniProt P22301 19-178, looked up, S48 on Cys 22, mature) SPGQGTQSENSCTHFPGNLPNCLRDLRDAFSRVKTFFQMKDQLDNLLLKESLLEDFKGYLGCQALSEMIQFYLEEVMPQAENQDPDIKAHVNSLGENLKTLRLRLRRCHRFLPCENKSKAVEQVKNAFNKLQEKGIYKAMSEFDIFINYIEAYMTMKIRN
–	123	–	–	IL-10 Thr35Cys-R4-5 (ligand, human, UniProt P22301 19-178, looked up, R4-5 on Cys 35, mature) SPGQGTQSENSCTHFPGNLPNMLRDLRDAFSRVKCFFQMKDQLDNLLLKESLLEDFKGYLGCQALSEMIQFYLEEVMPQAENQDPDIKAHVNSLGENLKTLRLRLRRCHRFLPCENKSKAVEQVKNAFNKLQEKGIYKAMSEFDIFINYIEAYMTMKIRN
–	79.6	–	–	IL-10 Phe36Cys-R4-8 (ligand, human, UniProt P22301 19-178, looked up, R4-8 on Cys 36, mature) SPGQGTQSENSCTHFPGNLPNMLRDLRDAFSRVKTCFQMKDQLDNLLLKESLLEDFKGYLGCQALSEMIQFYLEEVMPQAENQDPDIKAHVNSLGENLKTLRLRLRRCHRFLPCENKSKAVEQVKNAFNKLQEKGIYKAMSEFDIFINYIEAYMTMKIRN
–	–	3	–	IL-10 Val33Cys-S48 (ligand, human, UniProt P22301 19-178, looked up, S48 on Cys 33, mature) SPGQGTQSENSCTHFPGNLPNMLRDLRDAFSRCKTFFQMKDQLDNLLLKESLLEDFKGYLGCQALSEMIQFYLEEVMPQAENQDPDIKAHVNSLGENLKTLRLRLRRCHRFLPCENKSKAVEQVKNAFNKLQEKGIYKAMSEFDIFINYIEAYMTMKIRN
–	–	3	–	IL-10 Lys88Cys-S48 (ligand, human, UniProt P22301 19-178, looked up, S48 on Cys 88, mature) SPGQGTQSENSCTHFPGNLPNMLRDLRDAFSRVKTFFQMKDQLDNLLLKESLLEDFKGYLGCQALSEMIQFYLEEVMPQAENQDPDICAHVNSLGENLKTLRLRLRRCHRFLPCENKSKAVEQVKNAFNKLQEKGIYKAMSEFDIFINYIEAYMTMKIRN
90.4	89.6	–	–	IL-10 Arg32Cys-R4-7 (ligand, human, UniProt P22301 19-178, looked up, R4-7 on Cys 32, mature) SPGQGTQSENSCTHFPGNLPNMLRDLRDAFSCVKTFFQMKDQLDNLLLKESLLEDFKGYLGCQALSEMIQFYLEEVMPQAENQDPDIKAHVNSLGENLKTLRLRLRRCHRFLPCENKSKAVEQVKNAFNKLQEKGIYKAMSEFDIFINYIEAYMTMKIRN
99.7	85.3	–	–	IL-10 Asn21Cys-R4-18 (ligand, human, UniProt P22301 19-178, looked up, R4-18 on Cys 21, mature) SPGQGTQSENSCTHFPGNLPCMLRDLRDAFSRVKTFFQMKDQLDNLLLKESLLEDFKGYLGCQALSEMIQFYLEEVMPQAENQDPDIKAHVNSLGENLKTLRLRLRRCHRFLPCENKSKAVEQVKNAFNKLQEKGIYKAMSEFDIFINYIEAYMTMKIRN
–	–	7	8	IL-10 His90Cys-S48 (ligand, human, UniProt P22301 19-178, looked up, S48 on Cys 90, mature) SPGQGTQSENSCTHFPGNLPNMLRDLRDAFSRVKTFFQMKDQLDNLLLKESLLEDFKGYLGCQALSEMIQFYLEEVMPQAENQDPDIKACVNSLGENLKTLRLRLRRCHRFLPCENKSKAVEQVKNAFNKLQEKGIYKAMSEFDIFINYIEAYMTMKIRN
–	91.4	–	–	IL-10 Val33Cys-R4-7 (ligand, human, UniProt P22301 19-178, looked up, R4-7 on Cys 33, mature) SPGQGTQSENSCTHFPGNLPNMLRDLRDAFSRCKTFFQMKDQLDNLLLKESLLEDFKGYLGCQALSEMIQFYLEEVMPQAENQDPDIKAHVNSLGENLKTLRLRLRRCHRFLPCENKSKAVEQVKNAFNKLQEKGIYKAMSEFDIFINYIEAYMTMKIRN
–	99	–	–	IL-10 Lys88Cys-R4-7 (ligand, human, UniProt P22301 19-178, looked up, R4-7 on Cys 88, mature) SPGQGTQSENSCTHFPGNLPNMLRDLRDAFSRVKTFFQMKDQLDNLLLKESLLEDFKGYLGCQALSEMIQFYLEEVMPQAENQDPDICAHVNSLGENLKTLRLRLRRCHRFLPCENKSKAVEQVKNAFNKLQEKGIYKAMSEFDIFINYIEAYMTMKIRN
–	–	6	7	IL-10 Asn21Cys-S48 (ligand, human, UniProt P22301 19-178, looked up, S48 on Cys 21, mature) SPGQGTQSENSCTHFPGNLPCMLRDLRDAFSRVKTFFQMKDQLDNLLLKESLLEDFKGYLGCQALSEMIQFYLEEVMPQAENQDPDIKAHVNSLGENLKTLRLRLRRCHRFLPCENKSKAVEQVKNAFNKLQEKGIYKAMSEFDIFINYIEAYMTMKIRN
–	–	4	12	IL-10 Asn18Cys-S48 (ligand, human, UniProt P22301 19-178, looked up, S48 on Cys 18, mature) SPGQGTQSENSCTHFPGCLPNMLRDLRDAFSRVKTFFQMKDQLDNLLLKESLLEDFKGYLGCQALSEMIQFYLEEVMPQAENQDPDIKAHVNSLGENLKTLRLRLRRCHRFLPCENKSKAVEQVKNAFNKLQEKGIYKAMSEFDIFINYIEAYMTMKIRN
94.5	80.7	–	–	IL-10 Asn97Cys-R4-18 (ligand, human, UniProt P22301 19-178, looked up, R4-18 on Cys 97, mature) SPGQGTQSENSCTHFPGNLPNMLRDLRDAFSRVKTFFQMKDQLDNLLLKESLLEDFKGYLGCQALSEMIQFYLEEVMPQAENQDPDIKAHVNSLGECLKTLRLRLRRCHRFLPCENKSKAVEQVKNAFNKLQEKGIYKAMSEFDIFINYIEAYMTMKIRN
–	–	3	–	IL-10 Phe36Cys-S48 (ligand, human, UniProt P22301 19-178, looked up, S48 on Cys 36, mature) SPGQGTQSENSCTHFPGNLPNMLRDLRDAFSRVKTCFQMKDQLDNLLLKESLLEDFKGYLGCQALSEMIQFYLEEVMPQAENQDPDIKAHVNSLGENLKTLRLRLRRCHRFLPCENKSKAVEQVKNAFNKLQEKGIYKAMSEFDIFINYIEAYMTMKIRN
–	117	–	–	IL-10 Lys99Cys-R4-7 (ligand, human, UniProt P22301 19-178, looked up, R4-7 on Cys 99, mature) SPGQGTQSENSCTHFPGNLPNMLRDLRDAFSRVKTFFQMKDQLDNLLLKESLLEDFKGYLGCQALSEMIQFYLEEVMPQAENQDPDIKAHVNSLGENLCTLRLRLRRCHRFLPCENKSKAVEQVKNAFNKLQEKGIYKAMSEFDIFINYIEAYMTMKIRN
–	–	4	3	IL-10 Lys119Cys-S48 (ligand, human, UniProt P22301 19-178, looked up, S48 on Cys 119, mature) SPGQGTQSENSCTHFPGNLPNMLRDLRDAFSRVKTFFQMKDQLDNLLLKESLLEDFKGYLGCQALSEMIQFYLEEVMPQAENQDPDIKAHVNSLGENLKTLRLRLRRCHRFLPCENKSCAVEQVKNAFNKLQEKGIYKAMSEFDIFINYIEAYMTMKIRN
–	–	3	–	IL-10 Lys99Cys-S48 (ligand, human, UniProt P22301 19-178, looked up, S48 on Cys 99, mature) SPGQGTQSENSCTHFPGNLPNMLRDLRDAFSRVKTFFQMKDQLDNLLLKESLLEDFKGYLGCQALSEMIQFYLEEVMPQAENQDPDIKAHVNSLGENLCTLRLRLRRCHRFLPCENKSKAVEQVKNAFNKLQEKGIYKAMSEFDIFINYIEAYMTMKIRN
–	–	5	3	IL-10 Arg107Cys-S48 (ligand, human, UniProt P22301 19-178, looked up, S48 on Cys 107, mature) SPGQGTQSENSCTHFPGNLPNMLRDLRDAFSRVKTFFQMKDQLDNLLLKESLLEDFKGYLGCQALSEMIQFYLEEVMPQAENQDPDIKAHVNSLGENLKTLRLRLRCCHRFLPCENKSKAVEQVKNAFNKLQEKGIYKAMSEFDIFINYIEAYMTMKIRN
–	–	3	3	IL-10 Lys130Cys-S48 (ligand, human, UniProt P22301 19-178, looked up, S48 on Cys 130, mature) SPGQGTQSENSCTHFPGNLPNMLRDLRDAFSRVKTFFQMKDQLDNLLLKESLLEDFKGYLGCQALSEMIQFYLEEVMPQAENQDPDIKAHVNSLGENLKTLRLRLRRCHRFLPCENKSKAVEQVKNAFNCLQEKGIYKAMSEFDIFINYIEAYMTMKIRN
